Experimental data published in publication PMC2760644 (Journal of molecular biology, 2009).

Target: F-actin (chicken, UniProt P68139 1-377)
Experiment: co-sedimentation

B1: supervillin headpiece, wild type (domain or fragment)
chain: LAKLCKTIYPLADLLARPLPEGVDPLKLEIYLTDEDFEFALDMTRDEYNALPAWKQVNLKKAKGLF
Q: B1 was tested. Which Kd did it give?
A: > 20 mM
